Source: patent US20110124706A1, “SOCS3 Inhibition Promotes CNS Neuron Regeneration” (priority 2009, published 2011)
“Also recorded” adds a separate entry of the source.

Test system: injured optic nerve axons
Experiment: optic nerve crush injury, axon regeneration assessed by CTB anterograde tracing
Assay type: in vivo, mice
Conditions: intravitreal 1 μl CNTF (1 μg/μl) immediately before and 3 days after injury
Description: We applied optic nerve crush injury to assess axon growth ability in adult CNS in different conditional floxed mice (Park et al., 2008 Science 322, 963-966). Intravitreal application of recombinant adeno-associated viruses expressing Cre (AAVCre) results in Cre-dependent reporter expression in more than 90% of RGCs. Regeneration was assessed in the injured optic nerve axons by using cholera toxin beta subunit (CTB), an anterograde tracer, which was injected into the vitreous of the retina following optic nerve injury two days prior to histological analyses. Neuronal survival was assessed using whole-mount staining of the retinal tissue by immunostaining with an anti-β-III tubulin antibody, a commonly used marker of RGCs.
We intravitreously injected 1 μl CNTF (1 μg/μl) immediately before injury and 3 days after injury (PBS injection was used as control).

B1: ciliary neurotrophic factor (protein, UniProt P26441 1-200, looked up)
Ciliary neurotrophic factor: MAFTEHSPLTPHRRDLCSRSIWLARKIRSDLTALTESYVKHQGLNKNINLDSADGMPVASTDQWSELTEAERLQENLQAYRTFHVLLARLLEDQQVHFTPTEGDFHQAIHTLLLQVAAFAYQIEELMILLEYKIPRNEADGMPINVGDGGLFEKKLWGLKVLQELSQWTVRSIHDLRFISSHQTGIPARGSHYIANNKKM
SOCS3 deleted mice
  numbers and lengths of regenerating axons: dramatic increase; also recorded: further enhances
Control mice (SOCS3f/f with AAV-GFP)
  axon regeneration: limited degree of axon regeneration
